Consider one substance from patent US20090226474A1, “Antibodies as T cell receptor mimics, methods of production and uses thereof” (priority 2004, published 2009).

For assay [1], the target named is GVL peptide-HLA-A2 complex (human). The assay can be described thus: flow cytometry, T2 cells pulsed with 50 to 0.1 µg/ml GVL peptide. In general terms: In flow cytometry, cells or beads pass a laser one at a time.
Assay [2] shares this target. The assay can be described thus: cell-based or functional assay.

In assay [1], BB7.2 mAb (antibody) registered an MFI of 250 to 350 MFI. The substance also gave a CDC of T2 cells pulsed with 50 to 0.1 µg/ml GVL peptide, antibody 10 µg/ml in assay [2] of 53 to 70%.
